Experimental data published in paper PMC8847575, “HSL1 and BAM1/2 impact epidermal cell development by sensing distinct signaling peptides” (Nature Communications, 2022).
Square brackets hold non-standard residues; d marks the D form. Peptide text beside a SMILES is read from it. Hyp = O=C(O)[C@@H]1C[C@@H](O)CN1

Tests used:
HSL1 ectodomain = biological target: T1, HSL1 ectodomain (Arabidopsis thaliana, UniProt Q9SGP2); experiment: GCI binding kinetics, peptide vs immobilised HSL1; settings: HSL1 on surface, peptide as analyte, 25 °C, pH 5, one-to-one binding model, read-out: ka association rate constant, peptide vs HSL1 (GCI)
T1 construct: HSL1 (residues 17-618, AT1G28440); azurocidin or Drosophila BIP signal peptide (secretion signal) (N); made in house; host or cells: Trichoplusia ni Tnao38 insect cells (baculovirus)
T1 sequence (Q9SGP2 17-618): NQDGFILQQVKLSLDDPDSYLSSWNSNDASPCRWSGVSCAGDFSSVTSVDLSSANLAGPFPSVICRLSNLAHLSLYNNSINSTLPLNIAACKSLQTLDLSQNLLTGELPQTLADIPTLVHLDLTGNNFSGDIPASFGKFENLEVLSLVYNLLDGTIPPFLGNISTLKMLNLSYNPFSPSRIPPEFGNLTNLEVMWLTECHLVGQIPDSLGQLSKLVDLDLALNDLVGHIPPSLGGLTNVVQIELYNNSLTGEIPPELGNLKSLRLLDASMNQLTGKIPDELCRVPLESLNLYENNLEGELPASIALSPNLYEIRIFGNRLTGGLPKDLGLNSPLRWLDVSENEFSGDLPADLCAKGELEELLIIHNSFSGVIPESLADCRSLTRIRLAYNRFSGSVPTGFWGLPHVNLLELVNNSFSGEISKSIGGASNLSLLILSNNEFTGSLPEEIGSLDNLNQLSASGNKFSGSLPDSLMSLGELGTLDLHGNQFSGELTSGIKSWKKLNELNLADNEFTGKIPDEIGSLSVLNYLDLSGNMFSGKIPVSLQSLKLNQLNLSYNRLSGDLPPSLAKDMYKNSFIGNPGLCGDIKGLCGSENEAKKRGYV
Method: 25 μM of HSL1 were biotinylated with the biotin ligase BirA[60] (2 μM) for 1 h at 30 °C, in a volume of 200 μl. The buffer used in the reaction was: 25 mM Tris pH 8, 150 mM NaCl, 5 mM MgCl2, 2 mM 2-Mercaptoethanol, 0.15 mM Biotin, 2 mM ATP. Biotinylated proteins were purified by size-exclusion chromatography in 20 mM citric acid pH5, 150 mM NaCl and subsequently used in GCI experiments.
GCI experiments were performed with the Creoptix WAVE system (Creoptix AG, Switzerland) using 4PCP WAVE chips (thin quasiplanar polycarboxylate surface; Creoptix, Switzerland). Chips were first conditioned with borate buffer (100 mM sodium borate pH 9.0, 1 M NaCl; Xantec, Germany). Chips were activated with 1:1 mix of 400 mM N-(3-dimethylaminopropyl)-N′-ethylcarbodiimide hydrochloride and 100 mM N-hydroxysuccinimide (Xantec, Germany). Streptavidin (50 µg/ml; Sigma, Germany) in 10 mM sodium acetate pH 5.0 (Sigma, Germany) was immobilized on the chip surface until saturation was reached, followed by passivation of the surface with BSA (50 µg/ml; Sigma, Germany) in 10 mM sodium acetate pH5.0, and a final quenching step with 1 M ethanolamine pH 8.0 (Xantec, Germany). Then, biotinylated HSL1 (ligand) (80–100 μg/ml) was captured on the streptavidin surface until the desired density was reached. Normal kinetic analysis were performed to measure the binding of IDL peptides (analyte) to HSL1. Experiments were performed at 25 °C with a 1:2 dilution series from a maximum concentration of 5–50 μM peptide, in 20 mM citrate pH 5, 250 mM NaCl, 0.005% Tween-20 v/v. To analyze the interaction kinetics of the co-receptor SERK1, 2 µM of the protein was used as a higher dilution with running buffer containing 5 µM of the IDL peptides being tested. Blank injections were used for double referencing and a dimethylsulfoxide (DMSO) calibration curve for bulk correction. Analysis and correction of the obtained data were performed using the Creoptix WAVE control software (correction applied: X and Y offset; DMSO calibration; double referencing). One-to-one binding model was used for both experiments.

[1] = biological target: T2, BAM1 (BARELY ANY MERISTEM 1) ectodomain (Arabidopsis, UniProt O49545 20-637); experiment: ITC
T2 chain: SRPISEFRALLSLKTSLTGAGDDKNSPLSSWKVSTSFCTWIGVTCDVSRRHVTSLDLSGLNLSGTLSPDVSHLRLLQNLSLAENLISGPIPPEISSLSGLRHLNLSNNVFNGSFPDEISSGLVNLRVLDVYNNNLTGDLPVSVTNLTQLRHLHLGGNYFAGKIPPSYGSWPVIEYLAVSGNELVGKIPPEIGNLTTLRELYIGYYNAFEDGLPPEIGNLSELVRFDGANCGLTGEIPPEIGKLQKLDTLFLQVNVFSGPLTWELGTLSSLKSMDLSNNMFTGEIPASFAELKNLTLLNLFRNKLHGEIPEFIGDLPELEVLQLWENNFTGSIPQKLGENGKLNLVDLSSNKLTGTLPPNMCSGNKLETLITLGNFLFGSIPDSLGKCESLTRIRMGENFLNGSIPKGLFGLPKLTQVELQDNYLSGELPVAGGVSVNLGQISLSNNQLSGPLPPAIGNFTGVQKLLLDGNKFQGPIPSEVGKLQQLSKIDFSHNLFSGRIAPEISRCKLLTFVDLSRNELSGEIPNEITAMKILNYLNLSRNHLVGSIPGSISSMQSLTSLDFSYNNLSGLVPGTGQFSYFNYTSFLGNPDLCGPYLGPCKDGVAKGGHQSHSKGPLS

[2] = biological target: T3, BAM1 (BARELY ANY MERISTEM 1) ectodomain (Arabidopsis, UniProt O49545 20-637); experiment: ITC; peptide (75 to 600 µM) injected into 10 to 30 µM HSL1 or BAM1 ectodomain in the cell; 25 °C; 20 mM sodium citrate pH 5.0, 150 mM NaCl; N fitted to 1; settings: both partners purified
T3 construct: BAM1 LRR receptor kinase ectodomain, Arabidopsis, residues 20-637, AT5G65700; codon optimised; secreted with an azurocidin or Drosophila BiP signal peptide; also called BAM1 extracellular domain; BAM1 LRR ectodomain; source: Trichoplusia ni Tnao38 cells (baculovirus), secreted, purified (Ni2+, Strep-Tactin, TEV cleavage, second Ni2+, SEC)
T3 sequence (looked up): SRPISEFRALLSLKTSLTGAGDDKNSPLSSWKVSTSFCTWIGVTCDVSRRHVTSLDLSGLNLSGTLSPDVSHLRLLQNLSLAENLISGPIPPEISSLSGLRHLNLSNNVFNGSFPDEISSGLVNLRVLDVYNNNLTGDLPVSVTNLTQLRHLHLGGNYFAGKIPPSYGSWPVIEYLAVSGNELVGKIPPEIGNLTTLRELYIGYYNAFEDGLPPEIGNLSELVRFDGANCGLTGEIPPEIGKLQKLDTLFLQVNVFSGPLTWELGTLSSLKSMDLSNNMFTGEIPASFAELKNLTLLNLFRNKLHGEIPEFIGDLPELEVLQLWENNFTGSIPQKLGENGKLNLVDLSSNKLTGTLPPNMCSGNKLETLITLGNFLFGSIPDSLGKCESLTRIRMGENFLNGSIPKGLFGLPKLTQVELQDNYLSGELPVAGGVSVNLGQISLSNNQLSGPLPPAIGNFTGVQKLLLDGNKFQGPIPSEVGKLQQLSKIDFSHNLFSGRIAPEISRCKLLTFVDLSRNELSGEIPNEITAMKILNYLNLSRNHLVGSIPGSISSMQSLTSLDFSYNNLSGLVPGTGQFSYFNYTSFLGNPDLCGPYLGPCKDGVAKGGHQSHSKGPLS

[3] = biological target: T2, BAM1 (BARELY ANY MERISTEM 1) ectodomain; experiment: ITC; R109P L110I

For CC(C)[C@H](NC(=O)[C@@H]1CCCN1)C(=O)N1CCC[C@H]1C(=O)N[C@@H](C)C(=O)N[C@@H](CO)C(=O)N[C@@H](C)C(=O)N1C[C@H](O)C[C@H]1C(=O)N[C@@H](CO)C(=O)N[C@@H](CCCNC(=N)N)C(=O)N[C@@H](CCCCN)C(=O)N[C@@H](Cc1c[nH]cn1)C(=O)N[C@@H](CC(N)=O)C(=O)O [IDL4, IDA-LIKE] (H-PVPASA[Hyp]SRKHN-OH), the kon (HSL1 ectodomain) was 460000 M⁻¹ s⁻¹.

B1: CLE9^Hyp112PHyp115P peptide (peptide, UniProt Q9FZE4 109-120, looked up)
peptide: RLVPSGPNPLHN
modifications: Pro112 and Pro115 not hydroxylated
notes: CLE9 mature dodecapeptide with plain proline at 112 and 115 in place of hydroxyproline; also called CLE9 with Hyp in positions 4 and 7 replaced by Pro
With B1 the Kd [1] was 3 nM and the Kd [2] was roughly 5 nM.

B2: CLE9 variant with the second residue substituted by the corresponding one of IDA (peptide)
chain: RIVPSGPNPLHN
B2 was tested, and the Kd [3] was 129 nM.

B3: CLE9^V111P peptide (peptide, UniProt Q9FZE4 109-120, looked up)
peptide: RLPPSGPNPLHN
notes: CLE9 mature dodecapeptide with Val111 changed to Pro; also called replacement of the third Val by a Pro
Molecule B3 has a Kd [2] of 3000 nM.
